Experimental findings from patent US20230414780A1 (VECT HORUS, published 2023) are described below.

For assay [1], the target named is T1, human transferrin receptor (hTfR) fused to EGFP, on CHO cells (human, UniProt P02786 1-760).
T1 construct: whole, on cells; also called human TfR; CHO-hTfR-EGFP; not shown: EGFP from pEGFP-C1 vector, fused to the N-terminal (intracellular) end of hTfR
Description: apparent Kd, flow cytometry, CHO cells. Put shortly: (§1)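 CHO cells expressing TfR-EGFP fusions, blocked in PBS/BSA 2%, then incubated with increasing VHH concentrations for 1 hr at 4° C. Bound VHH detected via anti-6His antibody and Alexa647 secondary, cells PFA-fixed, read by flow cytometry. Apparent Kd from nonlinear fit.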
(In general: A flow cytometer gives signals particle by particle.)

Assay [2] deals with T2, rhesus monkey transferrin receptor (rhTfR) fused to EGFP, on CHO cells (rhesus monkey).
T2 construct: whole, on cells; also called rhesus monkey TfR
As to the kind of experiment: apparent Kd, flow cytometry, CHO cells. Put shortly: as §1

The target in assay [3] is T3, mouse transferrin receptor (mTfR) fused to EGFP, on CHO cells (mouse, UniProt Q62351 1-763).
T3 construct: whole, on cells; also called mouse TfR; CHO-mTfR-EGFP; not shown: EGFP
T3 sequence (Q62351 whole entry, the tested form may be a part): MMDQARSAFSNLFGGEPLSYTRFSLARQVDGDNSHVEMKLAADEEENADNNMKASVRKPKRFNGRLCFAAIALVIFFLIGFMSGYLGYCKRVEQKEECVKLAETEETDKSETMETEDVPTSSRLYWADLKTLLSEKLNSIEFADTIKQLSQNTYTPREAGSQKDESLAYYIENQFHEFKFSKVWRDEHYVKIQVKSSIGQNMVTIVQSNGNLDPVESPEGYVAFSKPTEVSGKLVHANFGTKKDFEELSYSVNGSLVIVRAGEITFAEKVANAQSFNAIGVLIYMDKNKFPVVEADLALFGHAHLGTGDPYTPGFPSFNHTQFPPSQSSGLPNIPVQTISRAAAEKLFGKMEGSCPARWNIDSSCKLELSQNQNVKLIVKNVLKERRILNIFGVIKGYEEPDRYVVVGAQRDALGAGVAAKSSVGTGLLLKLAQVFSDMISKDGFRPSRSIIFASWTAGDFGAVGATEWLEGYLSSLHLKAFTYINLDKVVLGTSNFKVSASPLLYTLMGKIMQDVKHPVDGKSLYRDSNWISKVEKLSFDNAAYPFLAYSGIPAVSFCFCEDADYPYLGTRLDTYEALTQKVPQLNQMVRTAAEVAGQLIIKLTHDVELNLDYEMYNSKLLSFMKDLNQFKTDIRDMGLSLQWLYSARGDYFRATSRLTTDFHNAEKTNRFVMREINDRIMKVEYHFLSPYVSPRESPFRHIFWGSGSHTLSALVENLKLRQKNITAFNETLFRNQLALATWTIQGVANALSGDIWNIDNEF
Description: apparent Kd, flow cytometry, CHO cells. A digest of the protocol:
as §1

Assay [4] deals with T4, mouse TfR ectodomain fused to a mouse IgG1 Fc fragment (mouse, UniProt Q62351 89-763).
T4 construct: extracellular domain; not shown: mouse IgG1 Fc fragment
T4 sequence (Q62351 89-763): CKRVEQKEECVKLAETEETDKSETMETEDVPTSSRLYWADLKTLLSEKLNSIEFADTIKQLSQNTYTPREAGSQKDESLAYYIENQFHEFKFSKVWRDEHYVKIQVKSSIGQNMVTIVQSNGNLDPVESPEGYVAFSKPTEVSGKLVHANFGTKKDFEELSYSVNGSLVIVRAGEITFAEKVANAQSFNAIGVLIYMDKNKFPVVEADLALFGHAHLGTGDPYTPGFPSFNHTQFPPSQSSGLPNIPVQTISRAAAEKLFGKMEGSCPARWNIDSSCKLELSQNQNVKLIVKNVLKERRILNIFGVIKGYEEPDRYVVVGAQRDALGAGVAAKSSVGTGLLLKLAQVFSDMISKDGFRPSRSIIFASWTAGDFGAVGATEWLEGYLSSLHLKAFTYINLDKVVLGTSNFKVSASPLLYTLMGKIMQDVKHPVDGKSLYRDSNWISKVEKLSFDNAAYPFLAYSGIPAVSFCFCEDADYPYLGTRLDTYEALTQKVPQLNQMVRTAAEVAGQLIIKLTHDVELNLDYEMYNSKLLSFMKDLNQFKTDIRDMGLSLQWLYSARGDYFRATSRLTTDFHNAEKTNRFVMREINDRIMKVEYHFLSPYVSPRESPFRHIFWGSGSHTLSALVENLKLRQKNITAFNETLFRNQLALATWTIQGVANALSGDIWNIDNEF
As to the kind of experiment: SPR, kinetic. Put shortly: (§2)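 TfR–mouse Fc fusions, produced in-house, captured on HC 1500M or CM5 chips either directly or via immobilized anti-mouse IgG. VHHs injected in single-cycle or multiple-cycle kinetic mode on Biacore T200.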
(SPR reads the build-up and loss of mass on a sensor chip optically.)

Assay [5] has as its target T5, rhesus monkey TfR ectodomain fused to a mouse IgG1 Fc fragment (rhesus monkey, UniProt I0FKY7 89-760).
T5 construct: extracellular domain; not shown: mouse IgG1 Fc fragment
Description: SPR, kinetic. A digest of the protocol: as §2

Assay [6] deals with T4, mouse TfR ectodomain fused to a mouse …. As to the kind of experiment: SPR, at equilibrium. A digest of the protocol: as §2
The target of assay [7] is T6, human TfR ectodomain fused to a mouse IgG1 Fc fragment (human, UniProt P02786 89-760).
T6 construct: extracellular domain; ectodomain fused to the N-terminal end of the Fc, made in-house; not shown: mouse IgG1 Fc fragment
T6 sequence (P02786 89-760): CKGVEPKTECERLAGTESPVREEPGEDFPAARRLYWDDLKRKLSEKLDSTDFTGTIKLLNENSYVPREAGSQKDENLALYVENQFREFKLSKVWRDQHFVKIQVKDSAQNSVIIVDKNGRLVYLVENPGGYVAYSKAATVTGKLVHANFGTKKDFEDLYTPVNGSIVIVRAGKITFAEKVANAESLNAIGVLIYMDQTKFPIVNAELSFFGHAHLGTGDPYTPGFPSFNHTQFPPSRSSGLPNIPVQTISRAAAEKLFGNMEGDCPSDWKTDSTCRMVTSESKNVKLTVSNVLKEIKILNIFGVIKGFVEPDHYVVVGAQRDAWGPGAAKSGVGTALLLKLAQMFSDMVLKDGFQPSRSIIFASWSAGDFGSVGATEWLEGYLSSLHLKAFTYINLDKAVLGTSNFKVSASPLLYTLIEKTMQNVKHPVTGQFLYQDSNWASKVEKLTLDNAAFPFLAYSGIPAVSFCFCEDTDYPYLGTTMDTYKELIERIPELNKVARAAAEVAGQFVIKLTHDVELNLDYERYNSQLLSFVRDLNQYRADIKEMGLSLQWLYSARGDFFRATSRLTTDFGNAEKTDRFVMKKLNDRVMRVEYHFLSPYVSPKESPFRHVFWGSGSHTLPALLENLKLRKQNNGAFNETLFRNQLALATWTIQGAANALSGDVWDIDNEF
Description: SPR, kinetic. A digest of the protocol: as §2

The target of assay [8] is T3, mouse transferrin receptor (mTfR) fused …. Description: flow cytometry, CHO cells. As to the method: The binding properties of VHHs with affinity for the TfR from different species (i.e., human (h), mouse (m) and rhesus monkey (rh)) were tested using flow cytometry, and apparent affinities (Kd app) were determined. All experiments were performed in 96 well plates using 2×10⁵ cells/well, at 4° C. with shaking. CHO cell lines expressing the hTfR, mTfR or rhTfR fused to EGFP were saturated with PBS/BSA 2% solution during 30 min to avoid nonspecific binding, followed by incubation with purified VHHs at increasing concentrations for 1 hr. After one wash in PBS/BSA 2%, cells were incubated for 1 hr with an anti-6His tag antibody (mouse), washed twice with PBS/BSA 2%, and incubated for 1 hr with an Alexa647-conjugated anti-mouse secondary antibody. After two last washes in PBS/BSA 2%, cells were fixed by incubation for 15 min with PBS/PFA 2%, washed once with PBS and finally resuspended in PBS. Fluorescence levels were assessed using an Attune NxT flow cytometer (Thermo Fisher Scientific). Experimental data were fitted with GraphPad Prism® software using a nonlinear fit to determine the apparent Kd constants. […] Table 5 hereafter summarizes apparent Kd obtained for the tested VHHs.

In assay [9] the target is T6, human TfR ectodomain fused to a mouse …. As to the kind of experiment: SPR, at equilibrium. Put shortly:
as §2

Assay [10] addresses T5, rhesus monkey TfR ectodomain fused to a …. As to the kind of experiment: SPR, at equilibrium. Put shortly:
as §2

T1 sequence (P02786 whole entry, the tested form may be a part): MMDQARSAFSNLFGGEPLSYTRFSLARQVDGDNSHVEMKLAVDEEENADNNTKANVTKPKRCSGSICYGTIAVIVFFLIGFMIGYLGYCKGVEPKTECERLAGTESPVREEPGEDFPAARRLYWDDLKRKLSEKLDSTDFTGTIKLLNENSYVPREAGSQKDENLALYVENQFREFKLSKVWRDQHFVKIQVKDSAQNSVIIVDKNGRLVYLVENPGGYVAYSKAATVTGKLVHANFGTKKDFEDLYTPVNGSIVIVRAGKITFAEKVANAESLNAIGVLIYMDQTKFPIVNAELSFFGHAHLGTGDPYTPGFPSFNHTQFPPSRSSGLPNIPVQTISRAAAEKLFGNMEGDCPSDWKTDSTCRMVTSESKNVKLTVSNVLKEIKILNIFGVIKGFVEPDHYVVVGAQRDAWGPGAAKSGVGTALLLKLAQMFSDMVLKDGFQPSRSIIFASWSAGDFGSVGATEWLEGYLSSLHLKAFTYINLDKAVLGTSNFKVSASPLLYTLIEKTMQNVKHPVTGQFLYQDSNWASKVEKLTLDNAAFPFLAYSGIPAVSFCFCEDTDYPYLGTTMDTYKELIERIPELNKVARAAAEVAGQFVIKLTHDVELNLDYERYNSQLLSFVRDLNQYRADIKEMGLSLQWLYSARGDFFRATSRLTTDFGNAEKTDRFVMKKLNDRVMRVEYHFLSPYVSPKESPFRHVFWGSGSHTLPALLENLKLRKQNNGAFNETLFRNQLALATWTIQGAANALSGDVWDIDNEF

B1: C5^V27 (VHH)
VHH: EVQLVESGGGVVQPGGSLKLSCVASGADFSINYIRWYRQAPGKQREFVAGFTATGNTNYADSMKGRFTISRDNTKNAVYLQIDSLKPEDTAVYYCYMLDKWGQGTQVTVSS
With B1, the Kd stood at 3.1 nM in [1]; 178 nM in [2]; 197 nM in assay [3]; 207 nM in assay [4]; 83.9 nM in assay [5]; 379 nM in [6]. The figures for the koff in [4] and in assay [5] were 0.102 s⁻¹ and 0.0278 s⁻¹, respectively. Further, the values for the kon in assay [4] and in assay [5] were 493000 M⁻¹ s⁻¹ and 332000 M⁻¹ s⁻¹, respectively.

B2: VHH A15 (C5^V15) (VHH)
VHH: EVQLVESGGGVVQPGGSLKLSCVASGTDFSINFIRWYRQAPGKQREFVAGFTATGNTNYADSMKGRFTISRDNTKNAVYLQIDSLKPEDTAVYYCFMLDKWGQGTQVTVSS
Take B2: the Kd in [1] was found to be 3.7 nM; in [2], 10 nM; in [3] it was 207 nM; in assay [4] it was 70.6 nM; in assay [7] it was 0.252 nM; in [6], 61.1 nM. The koff (commonly the rate constant with which the complex falls apart) in assay [4] was 0.0563 s⁻¹; in assay [7] it was 0.000176 s⁻¹. Further, the kon – broadly, the rate constant with which the complex forms – was found to be 797000 M⁻¹ s⁻¹ in assay [4] and 700000 M⁻¹ s⁻¹ in [7].

B3: C5^V29 (VHH)
VHH: EVQLVESGGGVVQPGGSLKLSCVASGADFSINFIRWYRQAPGKQREFVAGFTATGHTNYADSMKGRFTISRDNTKNAVYLQIDSLKPEDTAVYYCYMLDKWGQGTQVTVSS
Take B3: the Kd is 2.9 nM in assay [1]; 66 nM in assay [2]; 207 nM in assay [3]; 143 nM in assay [4]; 0.846 nM in assay [7]; 240 nM in [6]. Also, the dissociation rate constant (koff) in assay [4] is 0.0675 s⁻¹; in assay [7], 0.000982 s⁻¹. For the same molecule, the kon in assay [4] was found to be 472000 M⁻¹ s⁻¹; in assay [7], 1.17e+06 M⁻¹ s⁻¹.

B4: VHH A4 (C5^V4) (VHH)
VHH: EVQLVESGGGVVQPGGSLKLSCVASGTDFSINFIRWYRQAPGKQREFVAGFTATGATNYADSMKGRFTISRDNTKNAVYLQIDSLKPEDTAVYYCYMLDKWGQGTQVTVSS
Turning to B4, the Kd in assay [1] was 3.1 nM; in assay [2] it was 3.4 nM; in assay [3], 179 nM; in [4] it was 89.7 nM; in assay [6], 91.8 nM. Besides, the koff in assay [4] was 0.0532 s⁻¹. Also, in [4], the kon is 652000 M⁻¹ s⁻¹.

B5: VHH A11 (C5^V11) (VHH)
VHH: EVQLVESGGGVVQPGGSLKLSCVASGTDFSINYIRWYRQAPGKQREFVAGFTATGNTNYADSMKGRFTISRDNTKNAVYLQIDSLKPEDTAVYYCYMLDKWGQGTQVTVSS
For B5, the Kd in [1] amounted to 3.4 nM; in assay [2], 20 nM; in [3], 197 nM; in assay [4] it was 61.3 nM; in [7] it was 0.395 nM; in assay [6], 74.7 nM. In addition, the koff in assay [4] was determined as 0.0218 s⁻¹; in [7], 0.000311 s⁻¹. The kon in assay [4] was 355000 M⁻¹ s⁻¹; in assay [7], 790000 M⁻¹ s⁻¹.

B6: VHH A3 (C5^V3) (VHH)
VHH: EVQLVESGGGVVQPGGSLKLSCVASGTDFSINFIRWYRQAPGKQREFVAGFTAAGNTNYADSMKGRFTISRDNTKNAVYLQIDSLKPEDTAVYYCYMLDKWGQGTQVTVSS
With B6, the Kd in assay [2] was found to be 7 nM; in [3], 138 nM; in assay [4], 83.5 nM; in [6] it was 98.8 nM. The same molecule had an off-rate constant (koff) in [4] of 0.0467 s⁻¹. Also, the kon in assay [4] stood at 647000 M⁻¹ s⁻¹.

B7: VHH A9 (C5^V9) (VHH)
VHH: EVQLVESGGGVVQPGGSLKLSCVASGTDFSINFIRWYRQAPGKQREFVAGFTATGNTNYADSMKGRFTISRDNTKNAVYLQIDSLKPEDTAVYYCYMLDAWGQGTQVTVSS
For the molecule B7, the Kd in [1] was 3.4 nM; in assay [2], 4.6 nM; in [3] it was 47 nM; in assay [4], 40.8 nM; in [6], 40.5 nM. In assay [4], this molecule had a koff of 0.0197 s⁻¹. The kon in assay [4] turned out to be 524000 M⁻¹ s⁻¹.

B8: VHH A2 (C5^V2) (VHH)
VHH: EVQLVESGGGVVQPGGSLKLSCVASGTAFSINFIRWYRQAPGKQREFVAGFTATGNTNYADSMKGRFTISRDNTKNAVYLQIDSLKPEDTAVYYCYMLDKWGQGTQVTVSS
Turning to B8, the Kd was determined as 3.2 nM in [1]; 5.7 nM in assay [2]; 136 nM in assay [3]; 109 nM in assay [4]; 108 nM in assay [6]. Further, the off-rate constant (koff) in assay [4] was found to be 0.0579 s⁻¹. The association rate constant (kon) in assay [4] is 583000 M⁻¹ s⁻¹.

B9: B8^V3 (VHH)
VHH: EVQLVESGGGVVQPGGSLRLSCAASGEIFSINFMRWYREAPGKQREWVAGFTRDGSTNYPDSAKGRFTISRDNAKNTVYLQIDSLKPEDTAVYYCYMLDTWGQGTQVTVSS
Consider B9, for which the Kd in assay [1] came to 36 nM; in [2] it was 19 nM; in [3], 52 nM; in [4], 193 nM; in assay [7], 0.505 nM; in [6] it was 206 nM. Moreover, the off-rate (koff) in assay [4] was 0.0343 s⁻¹; in assay [7], 3.38e-05 s⁻¹. The kon was 178000 M⁻¹ s⁻¹ in [4] and 66900 M⁻¹ s⁻¹ in assay [7].

B10: B8^V22 (VHH)
VHH: EVQLVESGGGVVQPGGSLRLSCAASGEIFSINQMRWYRQAPGKQREWVAGFTRDGSTNYPDSAKGRFTISRDNAKNTVYLQIDSLKPEDTAVYYCYMLDTWGQGTQVTVSS
For the molecule B10, the Kd in assay [1] is 321 nM; in assay [2], 971 nM; in assay [7] it was 475 nM; in assay [9] it was 480 nM. For the same molecule, the binding result in [8] was “no binding”. Also, the association rate constant (kon) in assay [7] is 698000 M⁻¹ s⁻¹.

B11: C10a (VHH)
VHH: EVQLVESGGGLVQAGDSLRLSCAASGFASHLYAIGWFRQAPGKEREKVSCISSNDGSTYYADSVKGRFTISRDTVKDMVYLQMNSLKPEDTAVYYCATDLTVHCFMAEYDWWGQGTQVTVSS
In the case of B11, the Kd in [1] came out at 4.1 nM; in assay [2], 3.2 nM; in assay [5], 24.6 nM; in assay [7] it was 44.6 nM; in assay [10], 38.1 nM; in assay [9] it was 86.8 nM. For the same molecule, in assay [8], the binding result is “no binding”. Besides, the koff was 0.0178 s⁻¹ in assay [5] and 0.00726 s⁻¹ in assay [7]. Besides, the kon in assay [5] came to 903000 M⁻¹ s⁻¹; in assay [7] it was 188000 M⁻¹ s⁻¹.

B12: H1 (VHH)
VHH: EVQLVESGGGLVQPGGSLRLSCAASGFASHLYAIGWFRQAPGKEREKVSCISSNDGSTYYADSVKGRFTISRDTVKDMVYLQMNSLKPEDTAVYYCATDLTVHCFMAEYDWWGQGTQVTVSS
notes: also called phage-H1 (as tracer)
On to B12, for which the Kd was determined as 11 nM in [1]; 3.7 nM in assay [2]; 22.2 nM in assay [5]; 57.7 nM in assay [7]; 27.8 nM in assay [10]; 224 nM in [9]. In assay [8], the binding result is given as “no binding”. For the same molecule, the koff amounted to 0.0109 s⁻¹ in assay [5] and 0.00554 s⁻¹ in assay [7]. Also, the kon in assay [5] was 662000 M⁻¹ s⁻¹; in assay [7] it was 108000 M⁻¹ s⁻¹.
